Source: patent publication US20230322887A1 (SHANGHAI MINWEI BIOTECHNOLOGY, published 2023)

Key:
human glucagon receptor = human glucagon receptor (human, UniProt P47871 26-477); experiment: cell-based or functional assay
human GLP-1 receptor = human GLP-1 receptor (human, UniProt P43220 24-463); experiment: cell-based or functional assay

Sequence of human glucagon receptor (P47871 26-477): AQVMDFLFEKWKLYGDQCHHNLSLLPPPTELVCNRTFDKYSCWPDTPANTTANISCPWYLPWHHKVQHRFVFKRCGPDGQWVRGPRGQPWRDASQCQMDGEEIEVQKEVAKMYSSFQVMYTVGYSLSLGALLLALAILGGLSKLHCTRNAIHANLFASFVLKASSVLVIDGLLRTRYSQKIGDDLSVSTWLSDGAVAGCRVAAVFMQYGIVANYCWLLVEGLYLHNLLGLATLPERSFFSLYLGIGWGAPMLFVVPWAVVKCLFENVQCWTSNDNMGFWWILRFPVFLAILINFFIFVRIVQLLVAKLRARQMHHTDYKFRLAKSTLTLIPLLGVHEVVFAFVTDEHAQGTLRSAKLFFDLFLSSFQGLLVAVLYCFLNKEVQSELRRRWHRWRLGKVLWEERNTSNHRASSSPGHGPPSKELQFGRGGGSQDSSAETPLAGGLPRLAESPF

GLP-1 (from UniProt P01275 92-128) (ligand)
EC50 human glucagon-R (CRE-luciferase reporter cells) (human glucagon receptor): > 1000 µM

HSQGTFTSDYSKYLDEQAAKEFIAWLIAGGPSSGAPPPS [GLP-1/glucagon dual agonist polypeptide expressed by clone 3D9]
% RLUGLP-1 (CRE-luciferase reporter, against the 100 ng/ml GLP-1 positive control) (human GLP-1 receptor): 286% | % RLUGlucagon (CRE-luciferase reporter, against the 100 ng/ml glucagon positive control) (human glucagon receptor): 197%

HSQGTFTSDYSKYLDEQRAKDFIAWLIAGGPSSGAPPPS [GLP-1/glucagon dual agonist polypeptide expressed by clone 6B7]
% RLUGLP-1 (CRE-luciferase reporter, against the 100 ng/ml GLP-1 positive control) (human GLP-1 receptor): 123% | % RLUGlucagon (CRE-luciferase reporter, against the 100 ng/ml glucagon positive control) (human glucagon receptor): 156%

HSQGTFTSDYSKYLDEQRAKEFVAWLIAGGPSSGAPPPS [GLP-1/glucagon dual agonist polypeptide expressed by clone 12C6]
% RLUGLP-1 (CRE-luciferase reporter, against the 100 ng/ml GLP-1 positive control) (human GLP-1 receptor): 183% | % RLUGlucagon (CRE-luciferase reporter, against the 100 ng/ml glucagon positive control) (human glucagon receptor): 112%
